# Assay: soluble fraction after stress (log2 fold change); higher = more stays soluble; pooled small domains, quantitative proteomics
# Conditions: stress: pH 4
# Method in brief: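 Custom libraries of small protein domains were pooled and measured with high-throughput quantitative proteomics after pH 4 stress. The read-out is the fold change in the amount of each domain that stays soluble after the acid stress, taken as a measure of aggregation propensity. Fold changes are on a log2 scale, and higher values mean more of the domain stayed soluble.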
row,Sequence,soluble fraction (log2)
1,HMLKDQSIAQLEKNLDDLKGLMRKMFGSSDVPKITKMISDIESSLANFNQSKANKLIVQTTNYISSKL,-0.0978
2,HMLKEDSAYELGLRIFDQALNDYGTSFIDLKEDEYKKVLSIYGYSNPRQLIINIGLGNVIPHLLARDITE,-1.17
3,HMLKEGIKEKINQLQVYADKNDNIIWYDRVVDILSDKDDSVTDEMIEAAIRTLEEAGISVERKQ,-1.04
4,HMLKEGQYSPNHFHWHKMEDIINRGGGTLLIRVYNSLPDEEIDRESDVTVHMDGVTRTVPAGTQLRLE,-0.345
5,HMLKETGVITASVLNVREDIGTSSNIVAQLKKGMEVNILESRAIAGSETWYRIDAGSIKGWIFGDYI,-2.29
6,HMLKFGLSQRELQILALLPTDEPLSILAKSLFISESTLKTHLTHIYRKLGVKNRLQAINVARKAGLLK,-0.502
7,HMLKHSKQRDAIEQFLATRYDHPTAETVYMNLREEYPKLSLATVYRNLSLLAELGNIQKIPTGNGPDRFDG,0.22
8,HMLKIAENIYQRRKEKNITQEELADFMMVTKASVSKWETGQSYPDILLLPKLATFFNVTVDELIGYEPQ,-1.07
9,HMLKIVRSREEVESRLYTIYGNVKGRRLYNFYLSLIIDGLDIVKARTSKNVYYTNIRNLKNAGIDFSQKIN,-0.0641
10,HMLKPKDLHLGDSVRVLSLNLKGTVSSLPDTKGFLFVQMGIMRSKLHISDLQLIDEPVITAP,-0.314
11,HMLLFSVADIVKRSKRILSFKTDAELAAYFGVSRSTLSNWIARNSIDFPLLLSKMKDVDYTWLILGKGTPG,-0.207
12,HMLLLHINQMGVTEFSQLELNHVRSWLANLQIKGAARSSITRRVVSVRAFTYWGAKNGWLASDIGRDLVAP,-0.275
13,HMLLRVGGLVKDGSVRTDNDLGIKFIIEDNLAEVSVLYNGILPDLFREGQGVIAEGKFIDNIFIANEIVA,-1.13
14,HMLLSHTAQREGELLTFLRGELALSSGLVKRLKWQNAFFLDGAPVHTNARVKPGQEITVRIEE,-1.09
15,HMLLTEETLPQLKQIVDEFPYFQIARMLYLKNLAVLNDIRFSVELKKMSIYVPDRRKLFTLIEGE,-0.69
16,HMLLTLPEDIITMVRQGTLSAGHARVLAGLESDEMKMTLARQTITNEWSVRQLENAVALMRKS,-0.858
17,HMLLTPLEETRLVIEEIVIPQKLTIDLLPRSSAIRKLQHELITHYQLRGTSVGNEPNRRLRIYP,-0.633
18,HMLMNADVLVKYQEDHWIVISEKASQASDTFDKKEQAVERAKEIAKNKNSSVKVYKQDGTLQDTFDYS,0.306
19,HMLMSDEENAEFTKLYRQLVFKLHPDLNPNQTKDEENLWHKVQMAYKGGDLEEMRSLAIILDAQ,-0.547
20,HMLMTGSLQTKHGKYYVVVRIPDGLGNTKAKWINTGIPTDGNNKRKAQQRRIEILTELEENKD,0.168
21,HMLMYAQDEKEEASNNIPYRLLHMSFTKEQKAELQRAMDVRVPKDIILSYFYPDTPVARMMEIRRQYESA,0.12
22,HMLNDKLQTLFSLFPAVDKDLKKKGVTRQILWEQYKRNHPDGVGRSQFNYYYAQWKDQVNPT,0.22
23,HMLNDMYAVMEIRGQGGELIAKLINQDGSPFYVKKGTTLQSGHVIDEITTTYVRAEKAGAKDYLYF,-1.65
24,HMLNDTGAIRAAVEEVLAANEKSVNEYKGGKTQAFQYLIGQSMRALRGKAPAQEVTKLLKELLG,-0.0483
25,HMLNQIGVSQKEFDQIHTAIKIALKTSSLTPTGITEKLPKFPPEKTADILRWMADNKEVLLNSEEKYELKT,0.0247
26,HMLPAGAAAPLEDGSAPEGYTVKGNADSGLYHEPDGRWYDATVAEFWFKTAADAEAAGFRKAGS,-0.741

row,Sequence,soluble fraction (log2)
1,HMLPDGEAFVKVNTSLNIRTGPWGQIVGWFHNNDKVKIIGRDGDWYKISHNGQTRYIHSRYVSSSR,-0.0297
2,HMLPDHAPITMRQLAMLHVAKNKLDLTDEDYRSLLLLYGGVESSKQLNQEGLRRVLDRFKELGFEP,-0.258
3,HMLPDLLNGRVIPSPEKVIRARLNRGVWELLVQWVGRAPSDATWENLLEFKSAYPSVQLEDALF,-1.1
4,HMLPDLQKAIDTFLYEVDSRINTSFEELIDKLNSKEEAVAFFLALLEAVRWGFIKAEQESNSINIKK,-1.49
5,HMLPDSQLMKEATAWFMRQAADDFSGAERRRLDAWRAQSPAHARAYHQVQALWNAPELQQAAAR,-0.0106
6,HMLPEGIENGDVLTRTDALDYRKWLVTGNQKRIFASTASFYGENFNYSEVKAVSDRVLDAIPDGEPV,-0.549
7,HMLPFGHTRLEDGTIQEIPEQIALARKVAEMYKAGFPVMQISIKTEGLLTPRQIYGLMNHWGVKR,-0.412
8,HMLPIKLDLEIGENVRVVSGPLENFVGSVVSFDTDQQKVKLVVEMFGRKTPVELDFIEVQKLR,-1.47
9,HMLPIMDRLITAGISINTAKKWVDKFGDKRIKQNLAYSLAKQKEGKVKTNFVGYLAKAIEEDWGSGWE,≥ 0.43
10,HMLPKAERREQLMAVARSVFAEQGYHTTSMEIIAETAGVSKPLLYQHFPSKLDLYLALLDAGID,-1.1
11,HMLPKILVMDGKVNKNALTTLGKDEEWVKKVLRNHNIHSIKDVLLALYDTKGKFQYQLYDDYEK,-0.019
12,HMLPKNITNTIDHWIQKFPQGKQRSAIIAALHAVQHHNKGFLTNDLLNQVADYIDVPKMNVYEVATFYSM,0.22
13,HMLPLIEVPAVTGKYLTKAKSALKDAGLDTGDIKRVEHEEHGENYVLKQDPPAGTKVPFGTTVSLTVVAP,0.15
14,HMLPLLEYLDPFTGKKTYTYLNPDTQHPIFTYYSYQDDKTGRTAYSYIDPLTGKAVNSDEPPMDILYD,-1.34
15,HMLPPHMEVRAIMILDKRPMALMNIEGEGDGLIVSPGYRFGDGRGRVVSITQTKVVVLWAGTSMEL,-0.383
16,HMLPQYELIKQYLRHQIETGEWPIGYRTPSEPKLAEQFSVSRMTARRALQELADQGLLSRTAGSGTFVAKP,0.0856
17,HMLPVQGEEVAPGLYKFDFPFLADKRVWEKTINAFKAEHPELKVNYIYTGPDELNSKKKTHVLVYVFTES,-0.122
18,HMLPVYSITEAAERLDIPASTIKWYADRFASYISPSKGKGRKRFTPEDLATLQKIHELSQDHTTEEAEAML,-1.16
19,HMLPYKGTVAVSLAVLHKAVGVGTADMLKAVGTLRQGTEVTVTGRNGPFAQLKNGLWMKESFLE,0.193
20,HMLQADALADPVGWALRTLGFDLEAGTPERSAIQRSFRQSLIEAHPDHGGADDEAAQRIADITEARRILLA,-0.858
21,HMLQFTYPRLHTKKSWYVDFMSFDPGAGKMRRKKFMLDGIPKITDRRKRAAELIEVLTKQLRAGWSPWVNV,0.403
22,HMLQIADEYLDRLQALFEDVRDNHFAIGDLLVELVDMHDSRRVDVINYIAGRLAISPTTLYDYENTARR,-0.966
23,HMLQLDATDRALIVATQGGLPLVPRPYQVVGEQLGISGEEVVARLRALLDAGVIRRIGAVPN,0.327
24,HMLQLKEPLKKVYERLTPVPKTAETILAELWEKGEYLDIAALHRALMELELSGYVRQSSPGYFGTSA,0.00945
25,HMLQQKESAALGERLLNQALATLKVEPDAISWDRWEALAKEYGAKSQLDILADIGLGKRLSFVVAQALTKV,-0.698
26,HMLRDMIIQSYRYYTDKERNPRQVWNRMEADAFWEIIRDYEGYNGDGYVHTKIIPEMEALTVIEMDN,-1.62

row,Sequence,soluble fraction (log2)
1,HMLRISLAAARVNAEMTQEDVAREMHVSKNTVVNWEKGKSEPTISQSRELSKLYNMPLEYIFYL,0.258
2,HMLRKTTDLDAIRSVAKDVIDQNPKAVEDYVGGKESAIGFLLGQVMRATKGTADANTVRELLKEILDS,-0.234
3,HMLRPMVAILNKNISKGQVISEDYIKFEVRPERQIHGAYHDISEVLGRKTKNNIAAGTILKVRHLDT,0.375
4,HMLRQVSDSNALETAVKKVLDANPEEVERYKSGNKKLISFFVGQTMKATKGAGNPKEINSILAKLL,0.201
5,HMLSAEAAAARTAISTLSEDQQRVLGLSIQRGLVHEQIARATGLPLGTVKTHIRRGLIKVREALEAQAAG,0.0049
6,HMLSAGETYTLGYLKASDGILFTAADGSEQTVMQRVQVRLYDNGDGTYTARLADDIAYSAVVTEDMIDK,0.256
7,HMLSDAAAMESIAYEAIRQMEPDTYYIIGAGTTTRGIMEVLGLKNTLIGVDLIRNKELVANDLGGKELLSY,-0.796
8,HMLSDEDMMELAIIENLQRENLNPIEEARAYESLIDKGFTHTEIADKMGKSRPYISNSIRLLSL,-1.38
9,HMLSDFHLNHDSIVNHTVQKKETIFSLSKKYGLSINEIIKANPGIQIDKLKRRSILIIPLRKK,-0.12
10,HMLSDLTPGDLVVHATHGIGRFLGIRKLELEGMTKDYITIQYRGNENLYVPVTQMDLVSRYI,-0.975
11,HMLSGGEVKRIEIATILARKSGLMIFDEPEAGIDLWSFARLVETFEDIRSNTSGSLVIISHQ,-0.0926
12,HMLSKEERRSQLLDLGVRLLSTRSLDELSIDLLAEEAGISRGLLYHYFGNKHDFHEAVVRRAADDLI,-1.12
13,HMLSLKAQVYEIIRQKILQQEYALGEKINIDTVADELKISNSPIREALMMLSQDGLIEMVPNNGARVI,-1.27
14,HMLSLSDIINDVMERLTREKNLTFDELLGEKRERRRIVYTFLALLELIRLKMIKAYQTAAFGVIRIFPR,-1.15
15,HMLSLTSRQQEIFDLIKGHIKKTGMPPTRSEIALHFGFRSANSAEEHLRALARKGFIELIPGTSRGIKLIE,≥ 0.43
16,HMLSPPWYEYHRKVQAMFGRDPEVHIKDLDDLGDGKFSYMILVYNKEKAEAIKAILPQKVEMGNVTIETAI,≥ 0.43
17,HMLSRNEWLVMEALWERPSTLMELVRQLGQEPPGWAKSTTATMVRRMEEKGLIRHEAGSKARVYHP,-0.325
18,HMLSSAAAIDRILAGGTAAMNHRQFDAALTSFNTVIEMRPDFAEGWNKRATLYYLIGEYERSIADVERTLA,0.0555
19,HMLSTRERMSSLMAQLQVQQFMPFHRLFTISEGRMGVIVTFLAMMELVKENLIKLIQAQEYGPIHVSLG,0.22
20,HMLSVRERMSAILVSLEGERYADFTGLFDPTEGKGGVTVTFLAILELLKESMIDVVQNELYGPIHVRAA,0.122
21,HMLSVRNRMSDVLKSLDDGEFHRFESLFNLEEGRLGVVVTFLAMLELAKEMLVEIVQNESLGPIYLKSR,0.144
22,HMLSVRQRMGELLERLADGQFHRFESLFTVEEGKLGVVVTFLGLLTLAKEQLLDIVQEGPTAPIYVKSLA,0.0784
23,HMLSVTLTVLPQQAGERLDAFAAAESTLSRSAAAKLIEDGQITVNGARAAKNYRLRAGDVIEIDEPEPI,0.194
24,HMLTAPMPGTIQQILVTKGQKVRSGQTLMILEAMKMEHKIKAPNSGEIISINYSLGNRVEMGANLIEI,0.0752

# Source: the domain aggregation screens of Martell et al. (2025)
